This data set has as its target T1, N-terminal tagged Cyclin D1 (FLAG-HA-Cyclin D1, tag at the N-terminus), P25322.
T1 chain: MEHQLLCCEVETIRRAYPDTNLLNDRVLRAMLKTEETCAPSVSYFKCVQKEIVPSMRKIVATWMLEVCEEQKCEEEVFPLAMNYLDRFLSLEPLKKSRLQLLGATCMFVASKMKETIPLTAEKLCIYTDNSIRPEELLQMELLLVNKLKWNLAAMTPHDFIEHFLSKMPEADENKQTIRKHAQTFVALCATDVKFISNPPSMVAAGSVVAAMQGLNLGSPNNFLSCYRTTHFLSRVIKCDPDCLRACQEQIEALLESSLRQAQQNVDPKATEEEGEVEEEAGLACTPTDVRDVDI

B1: caspase 3 (protein)
chain: MENNKTSVDSKSINNFEVKTIHGSKSVDSGIYLDSSYKMDYPEMGICIIINNKNFHKSTGMSSRSGTDVDAANLRETFMGLKYQVRNKNDLTREDILELMDSVSKEDHSKRSSFVCVILSHGDEGVIYGTNGPVELKKLTSFFRGDYCRSLTGKPKLFIIQACRGTELDCGIETDSGTDEEMACQKIPVEADFLYAYSTAPGYYSWRNSKDGSWFIQSLCSMLKLYAHKLEFMHILTRVNRKVATEFESFSLDSTFHAKKQIPCIVSMLTKELYFYH
With B1, the “levels of cleaved PARP (Western blot) after treatment with 5-FU” value is on record as “The levels of cleaved PARP increase in RAS or ErbB2 cancer cells after treatment with 5-FU, although limited by the Cyclin D1”.

These data come from patent publication US20180202002.
